Data taken from paper PMC4072508, “Genome-Wide Prediction and Validation of Peptides That Bind Human Prosurvival Bcl-2 Proteins” (PLoS Computational Biology, 2014).

T1: Mcl-1, Q07820
T1 chain: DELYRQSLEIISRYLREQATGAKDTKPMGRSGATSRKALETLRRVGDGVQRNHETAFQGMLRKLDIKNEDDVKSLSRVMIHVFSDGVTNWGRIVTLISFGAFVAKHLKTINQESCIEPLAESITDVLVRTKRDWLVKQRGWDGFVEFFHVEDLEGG

T2: Bfl-1, Q16548
T2 chain: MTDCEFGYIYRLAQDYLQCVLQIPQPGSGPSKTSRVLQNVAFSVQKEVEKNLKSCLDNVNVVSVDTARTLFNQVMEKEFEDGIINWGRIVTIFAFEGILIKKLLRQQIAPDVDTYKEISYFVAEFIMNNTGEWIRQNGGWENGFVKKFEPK


These binders were tested against Bcl-xL, Q07817 (assay: peptide SPOT array, c-Myc-tagged receptor at 1 uM or 100 nM, anti-c-Myc-Cy3).
Chain of Bcl-xL, Q07817 (Q07817 1-209): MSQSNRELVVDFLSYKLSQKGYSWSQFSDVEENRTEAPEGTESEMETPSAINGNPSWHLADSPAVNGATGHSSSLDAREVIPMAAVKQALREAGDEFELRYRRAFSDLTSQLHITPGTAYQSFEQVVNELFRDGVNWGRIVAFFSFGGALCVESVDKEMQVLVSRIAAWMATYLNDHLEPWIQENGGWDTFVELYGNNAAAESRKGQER

Row | SPOT signal as a fraction of Bim BH3's signal on the same receptor and array | Binder
1 | 0.06 | SKFVILSAHKLVFILDTLTRQVTAQD [NEDD9]
2 | 0.19 | NKTMTQLSSTLARCLKDILGFAVMFF [PKD2L1]
3 | 0.08 | QRLINLVGESLRLLLNTFVALSDLRC [BAT3]
4 | 0.07 | RVSWNITGTVDASSGDDGCVRLWKAN [SEH1L]
5 | 0.02 | VFDDLRGSVSLSWVGDSTGVILVLTT
6 | 0.01 | VFDDLRGSVSLSWVLDSTGVILVLTT
7 | 1 | SRQPRDFGDSLARGGKGFLRGVVGGV [VPS13C]
8 | 0.01 | SKFVILSAHKDVFIGDTLSRQAKAAD [BCAR1]
9 | 0.02 | QLSKPGAALYLQSIGEGFKEAVQYVL [SOS1]
10 | 0.02 | HGTSSRIGSSMKSVGEVMAIGRTFEE [CPS1]

Continued, binder first:

Row | Binder | SPOT signal as a fraction of Bim BH3's signal on the same receptor and array
11 | TLHFNQRGTWDASGSDDLKVVVWDWV [DCAF8] | 0.02
12 | GLFSATSGVDLKYVADTFGQEVRPVS [DDX7] | 0.02
13 | NKSLTTLGLVISSLADQAAGKGKSKF [KIF13A] | 0.4
14 | SVRYYPSGDAFASGLDDATCRLYDLR [GNB5] | 0.02
15 | VLSRIEAGRSLKSVLDEFGISKSTFY [TIGD7] | 0.08
16 | RHFVIRRGQVDREIAEEYGGVMVSFP [HDLBP] | 0.02
17 | VILADPDGHEICFVGDEAFRELSKMD [GLOD4] | 0.02
18 | IQENVDISTVYQIFLDEVLGSGQFGI [PRKD3] | 0.08
19 | HPRKESQVRQLAWVGDGVWVSIRLDS [SPAG9] | 0.02
20 | EKVLIFGGDILKFALDALLALWRVER [ADCY10] | 0.04
21 | LRVSTKIGSCMKSVLEVMGIGRSFEE | 0.04
22 | SWFIQSLCAMLKQYLDKLEFMHILTR [CASP3] | 0.27
23 | IQQDLGCGASLGVILDNLLVTGGQGC [SCAP] | 0.01
24 | KKCQDMIMTEDTNAGDDVVVFYNDKA [ITPR3] | 0.02
25 | VFDDLRGSVSDSWVGDSTGVILVLTT | 0.02
26 | LRVSTKIGSCDKSVGEVMGIGRSFEE | 0.02
27 | ITVVGDVGGRIAIILDDIIDDVESFV [PRPSAP1] | 0.02
28 | RGAMLSLATGDAHSGSDLSLLVPEIE | 0.06
29 | RGAMLSLATGLAHSLSDLSLLVPEIE | 0.06
30 | ERAISCMGQIDCNLGDNLGSDLPNTL | 0.01
31 | ERAISCMGQIICNLGDNLGSDLPNTL | 0.01
32 | IVGGCVVGIADARFADFIRGMLKLIL [DIRC2] | 0.15
33 | RCELQICGLADADAGEYLCVCGQERT [OBSCN] | 0.01
34 | AIKWDPTGNLLASCLDDMTLKIWSMK [TBL1XR1] | 0.07
35 | AVLCVECGYKYRFFLEDAEIAARELN [MSH3] | 0.02

Biological target: T1, Mcl-1, Q07820
Experiment: as above

Row | SPOT signal as a fraction of Bim BH3's signal on the same receptor and array | Binder
36 | 0.04 | SKFVILSAHKLVFILDTLTRQVTAQD [NEDD9]
37 | 0.12 | NKTMTQLSSTLARCLKDILGFAVMFF [PKD2L1]
38 | 0.03 | QRLINLVGESLRLLLNTFVALSDLRC [BAT3]
39 | 0.03 | RVSWNITGTVDASSGDDGCVRLWKAN [SEH1L]
40 | 0.01 | VFDDLRGSVSLSWVGDSTGVILVLTT
41 | 0.02 | VFDDLRGSVSLSWVLDSTGVILVLTT
42 | 0.53 | SRQPRDFGDSLARGGKGFLRGVVGGV [VPS13C]
43 | 0.02 | SKFVILSAHKDVFIGDTLSRQAKAAD [BCAR1]
44 | 0.02 | QLSKPGAALYLQSIGEGFKEAVQYVL [SOS1]
45 | 0.02 | HGTSSRIGSSMKSVGEVMAIGRTFEE [CPS1]

Second part, the binder before the results:

Row | Binder | SPOT signal as a fraction of Bim BH3's signal on the same receptor and array
46 | TLHFNQRGTWDASGSDDLKVVVWDWV [DCAF8] | 0.02
47 | GLFSATSGVDLKYVADTFGQEVRPVS [DDX7] | 0.02
48 | NKSLTTLGLVISSLADQAAGKGKSKF [KIF13A] | 0.18
49 | SVRYYPSGDAFASGLDDATCRLYDLR [GNB5] | 0.02
50 | VLSRIEAGRSLKSVLDEFGISKSTFY [TIGD7] | 0.085
51 | RHFVIRRGQVDREIAEEYGGVMVSFP [HDLBP] | 0.03
52 | VILADPDGHEICFVGDEAFRELSKMD [GLOD4] | 0.01
53 | IQENVDISTVYQIFLDEVLGSGQFGI [PRKD3] | 0.05
54 | HPRKESQVRQLAWVGDGVWVSIRLDS [SPAG9] | 0.02
55 | EKVLIFGGDILKFALDALLALWRVER [ADCY10] | 0.03
56 | LRVSTKIGSCMKSVLEVMGIGRSFEE | 0.04
57 | IQQDLGCGASLGVILDNLLVTGGQGC [SCAP] | 0.01
58 | KKCQDMIMTEDTNAGDDVVVFYNDKA [ITPR3] | 0.01
59 | VFDDLRGSVSDSWVGDSTGVILVLTT | 0.02
60 | LRVSTKIGSCDKSVGEVMGIGRSFEE | 0.02
61 | ITVVGDVGGRIAIILDDIIDDVESFV [PRPSAP1] | 0.02
62 | RGAMLSLATGDAHSGSDLSLLVPEIE | 0.04
63 | RGAMLSLATGLAHSLSDLSLLVPEIE | 0.05
64 | ERAISCMGQIDCNLGDNLGSDLPNTL | 0.01
65 | ERAISCMGQIICNLGDNLGSDLPNTL | 0.01
66 | IVGGCVVGIADARFADFIRGMLKLIL [DIRC2] | 0.14
67 | RCELQICGLADADAGEYLCVCGQERT [OBSCN] | 0.01
68 | AIKWDPTGNLLASCLDDMTLKIWSMK [TBL1XR1] | 0.05
69 | AVLCVECGYKYRFFLEDAEIAARELN [MSH3] | 0.02

Biological target: T2, Bfl-1, Q16548
Experiment: as above

Row | SPOT signal as a fraction of Bim BH3's signal on the same receptor and array | Binder
70 | 0.0533 | KQMKEDGACLFRAVADQVYGDQDMHE
71 | 0.03 | MEMYQPSAVVLQCGADSLSGDRLGCF [HDAC2]
72 | 0.0567 | KQMKEDGACLFRAVLDQVYGDQDMHE
73 | 0.04 | THFLDEEVKLIKKMGDHLTNLHRLGG [FTL]

More lines, now with the values behind:

Row | Binder | SPOT signal as a fraction of Bim BH3's signal on the same receptor and array
74 | IQENVDISTVYQIFLDEVLGSGQFGI [PRKD3] | 0.05
75 | SWFIQSLCAMLKQYLDKLEFMHILTR [CASP3] | 0.21
76 | KQMKEDGACLDRAVADQVYGDQDMHE | 0.0533
